For the test, the target named is human NGF (Homo sapiens, UniProt P01138). Nature of the test: binding affinity; method not given.

For orientation: Kd means a measure of binding affinity in units of concentration. Low readings indicate higher affinity, high ones lower affinity.

Sequence of human NGF (P01138 122-241 limits assumed): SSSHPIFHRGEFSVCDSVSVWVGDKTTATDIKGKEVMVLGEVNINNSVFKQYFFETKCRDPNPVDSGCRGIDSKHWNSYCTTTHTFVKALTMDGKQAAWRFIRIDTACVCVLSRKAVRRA

B1: humanized anti-NGF antibody E3 (antibody, V domains shown)
VH: VQLQESGPGLVKLPSETLSLTCTVSGFSLIGYDLNWIRQPPGKGLEWIGIIWGDGTTDYNSAVKSRVTISKDTSKNQFSLKLSSVTAADTAVYYCARGGYWYATSYYFDYWGQGTLVTVS
VL: DIQMTQSPSSLSASVGDRVTITCRASQSISNNLNWYQQKPGKAPKLLIYYTSRFHSGVPSRFSGSGSGTDFTFTISSLQPEDIATYYCQQEHTLPYTFGQGTKLEIK
As to B1, the Kd is 0.07 nM.

The values are drawn from US20040131615A1, “Methods for treating pain by administering a nerve growth factor antagonist and an opioid analgesic and compositions containing the same” (priority 2002, published 2004).
